# Assay results from the supplement of paper PMC10567573.
# B1: CAMK2A (parent)
# chain: ILLVGYPPFWDEDQHRLYKQIKAG
# Variants of: B1
# Assay: protein stability index of a GFP-peptide fusion (GPS, HEK-293T) (PSI 1-6); higher = more stable
# Conditions: c terminus: a fixed tail appended
# 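Further: lentivirally expressed fusions sorted by FACS into six bins by GFP to DsRed ratio, PSI derived from sequencing read proportions per bin multiplied by bin number.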
row,Variant,protein stability index
1,ILLVGYPPFWDEDRHRLYKQIKAG [Q14R],2.78
2,ILLVGYPPFWDEDPHRLYKQIKAG [Q14P],3.6
3,ILLVGYPPFWDEDGHRLYKQIKAG [Q14G],3.47
4,ILLVGYPPFWDEDDHRLYKQIKAG [Q14D],2.32
5,ILLVGYPPFWDEDAHRLYKQIKAG [Q14A],2.65
6,ILLVGYPPFWDEDTHRLYKQIKAG [Q14T],2.98
7,ILLVGYPPFWDEDIHRLYKQIKAG [Q14I],2.05
8,ILLVGYPPFWDEDKHRLYKQIKAG [Q14K],1.68
9,ILLVGYPPFWDEDSHRLYKQIKAG [Q14S],2.59
10,ILLVGYPPFWDEDFHRLYKQIKAG [Q14F],2.52
11,ILLVGYPPFWDEDVHRLYKQIKAG [Q14V],2.89
12,ILLVGYPPFWDEDYHRLYKQIKAG [Q14Y],2.54
13,ILLVGYPPFWDEDLHRLYKQIKAG [Q14L],2.35
14,ILLVGYPPFWDEDEHRLYKQIKAG [Q14E],2.01
15,ILLVGYPPFWDEDWHRLYKQIKAG [Q14W],1.57
16,ILLVGYPPFWDEDHHRLYKQIKAG [Q14H],2.67
17,ILLVGYPPFWDEDNHRLYKQIKAG [Q14N],2.33
18,ILLVGYPPFWDEDQCRLYKQIKAG [H15C],3.07
19,ILLVGYPPFWDEDQGRLYKQIKAG [H15G],2.21
20,ILLVGYPPFWDEDQQRLYKQIKAG [H15Q],2.51
21,ILLVGYPPFWDEDQFRLYKQIKAG [H15F],2.5
22,ILLVGYPPFWDEDQVRLYKQIKAG [H15V],2.84
23,ILLVGYPPFWDEDQKRLYKQIKAG [H15K],1.24
24,ILLVGYPPFWDEDQLRLYKQIKAG [H15L],2.16

row,Variant,protein stability index
1,ILLVGYPPFWDEDQERLYKQIKAG [H15E],2.14
2,ILLVGYPPFWDEDQARLYKQIKAG [H15A],2.55
3,ILLVGYPPFWDEDQPRLYKQIKAG [H15P],2.6
4,ILLVGYPPFWDEDQTRLYKQIKAG [H15T],2.8
5,ILLVGYPPFWDEDQDRLYKQIKAG [H15D],2.13
6,ILLVGYPPFWDEDQIRLYKQIKAG [H15I],2.31
7,ILLVGYPPFWDEDQWRLYKQIKAG [H15W],2.08
8,ILLVGYPPFWDEDQSRLYKQIKAG [H15S],2.89
9,ILLVGYPPFWDEDQNRLYKQIKAG [H15N],2.2
10,ILLVGYPPFWDEDQHLLYKQIKAG [R16L],2.27
11,ILLVGYPPFWDEDQHILYKQIKAG [R16I],1.62
12,ILLVGYPPFWDEDQHALYKQIKAG [R16A],2.61
13,ILLVGYPPFWDEDQHYLYKQIKAG [R16Y],3.24
14,ILLVGYPPFWDEDQHSLYKQIKAG [R16S],2.5
15,ILLVGYPPFWDEDQHDLYKQIKAG [R16D],2.63
16,ILLVGYPPFWDEDQHGLYKQIKAG [R16G],1.64
17,ILLVGYPPFWDEDQHPLYKQIKAG [R16P],1.54
18,ILLVGYPPFWDEDQHNLYKQIKAG [R16N],2.27
19,ILLVGYPPFWDEDQHQLYKQIKAG [R16Q],1.84
20,ILLVGYPPFWDEDQHTLYKQIKAG [R16T],1.29
21,ILLVGYPPFWDEDQHELYKQIKAG [R16E],2.2
22,ILLVGYPPFWDEDQHVLYKQIKAG [R16V],2.67
23,ILLVGYPPFWDEDQHHLYKQIKAG [R16H],2.12
24,ILLVGYPPFWDEDQHWLYKQIKAG [R16W],1.62

row,Variant,protein stability index
1,ILLVGYPPFWDEDQHMLYKQIKAG [R16M],2.07
2,ILLVGYPPFWDEDQHCLYKQIKAG [R16C],2.16
3,ILLVGYPPFWDEDQHFLYKQIKAG [R16F],2.2
4,ILLVGYPPFWDEDQHKLYKQIKAG [R16K],1.57
5,ILLVGYPPFWDEEQHRLYKQIKAG [D13E],1.76
6,ILLVGYPPFWDETQHRLYKQIKAG [D13T],2.2
7,ILLVGYPPFWDERQHRLYKQIKAG [D13R],2.19
8,ILLVGYPPFWDELQHRLYKQIKAG [D13L],3.98
9,ILLVGYPPFWDEPQHRLYKQIKAG [D13P],2.24
10,ILLVGYPPFWDEQQHRLYKQIKAG [D13Q],2.42
11,ILLVGYPPFWDEKQHRLYKQIKAG [D13K],3.5
12,ILLVGYPPFWDEHQHRLYKQIKAG [D13H],2.2
13,ILLVGYPPFWDEAQHRLYKQIKAG [D13A],3.24
14,ILLVGYPPFWDEFQHRLYKQIKAG [D13F],3.02
15,ILLVGYPPFWDECQHRLYKQIKAG [D13C],2.36
16,ILLVGYPPFWDESQHRLYKQIKAG [D13S],2.06
17,ILLVGYPPFWDEVQHRLYKQIKAG [D13V],2.54
18,ILLVGYPPFWDEMQHRLYKQIKAG [D13M],3.08
19,ILLVGYPPFWDEIQHRLYKQIKAG [D13I],2.18
20,ILLVGYPPFWDPDQHRLYKQIKAG [E12P],2.84
21,ILLVGYPPFWDMDQHRLYKQIKAG [E12M],3.3
22,ILLVGYPPFWDVDQHRLYKQIKAG [E12V],2.56
23,ILLVGYPPFWDWDQHRLYKQIKAG [E12W],2.32
24,ILLVGYPPFWDLDQHRLYKQIKAG [E12L],1.95

row,Variant,protein stability index
1,ILLVGYPPFWDQDQHRLYKQIKAG [E12Q],3.3
2,ILLVGYPPFWDYDQHRLYKQIKAG [E12Y],2.57
3,ILLVGYPPFWDIDQHRLYKQIKAG [E12I],2.76
4,ILLVGYPPFWDHDQHRLYKQIKAG [E12H],2.29
5,ILLVGYPPFWDADQHRLYKQIKAG [E12A],1.49
6,ILLVGYPPFWDTDQHRLYKQIKAG [E12T],1.96
7,ILLVGYPPFWDDDQHRLYKQIKAG [E12D],2.27
8,ILLVGYPPFWDRDQHRLYKQIKAG [E12R],2.23
9,ILLVGYPPFWDFDQHRLYKQIKAG [E12F],2.03
10,ILLVGYPPFWDNDQHRLYKQIKAG [E12N],1.42
11,ILLVGYPPFWDKDQHRLYKQIKAG [E12K],1.92
12,ILLVGYPPFWREDQHRLYKQIKAG [D11R],1.21
13,ILLVGYPPFWGEDQHRLYKQIKAG [D11G],1.55
14,ILLVGYPPFWAEDQHRLYKQIKAG [D11A],2.34
15,ILLVGYPPFWPEDQHRLYKQIKAG [D11P],2.35
16,ILLVGYPPFWHEDQHRLYKQIKAG [D11H],2.29
17,ILLVGYPPFWFEDQHRLYKQIKAG [D11F],3.09
18,ILLVGYPPFWWEDQHRLYKQIKAG [D11W],2.44
19,ILLVGYPPFWKEDQHRLYKQIKAG [D11K],2.46
20,ILLVGYPPFWMEDQHRLYKQIKAG [D11M],2.52
21,ILLVGYPPFWSEDQHRLYKQIKAG [D11S],2.62
22,ILLVGYPPFWYEDQHRLYKQIKAG [D11Y],1.61
